Our source for the binding values is article PMC12196045.

The data set concerns the target T1, OmpR-N6His (Xenorhabdus nematophila YL001) (UniProt D3VF01).
T1 sequence: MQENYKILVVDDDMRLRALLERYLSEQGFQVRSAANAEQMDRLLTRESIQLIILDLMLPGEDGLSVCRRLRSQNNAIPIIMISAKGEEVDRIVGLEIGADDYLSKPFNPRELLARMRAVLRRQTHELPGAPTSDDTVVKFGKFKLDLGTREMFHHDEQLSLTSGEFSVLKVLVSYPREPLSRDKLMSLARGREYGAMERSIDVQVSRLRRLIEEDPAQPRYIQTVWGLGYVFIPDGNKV
The data set can be described thus: EMSA. The conditions noted are these: EMSA: 5x buffer 250 mM Tris, 250 mM KCl, 0.5 mM DTT, 50 mM MgCl2, 25% glycerol, pH 8.0 (1x: 50 mM Tris, 50 mM KCl, 0.1 mM DTT, 10 mM MgCl2, 5% glycerol); 30 min. In general terms: Mobility shift assays separate free from complexed probe on a gel.
As to “TACGGCTACGTAAATAATAAAGCATTGGTTATGTCTGTTTGTTTTTTTGTACAAGGACGAATCTCAATTTAATTTCGAAAAATTGAGGTCATTGATCTTATTAATGGGTAGGTTGTTTACGATGTCAAAATGTTGCATTTGAAAACAGACAATCTTCCATTATTTAATGAGATCACTGCGATAAGTTTAGTGGAGTGAAATA (double strand) [PleuO202]”, the binding result is “no binding”.

As for “TTTGGATTGCATAAATTTTGTTAAGAAAGGAGAAAAATAAAACCCCATGATAGTCTAAATAGTAAAAAAATGAAGTAAACCTTTGCCCTATTTAATAGAGTAGAGTAATGTCACAATCGGTATTATTTTATTTGATACTGCTGAAGTAAAAACACCAGGTTAGTTAGTAATTAAAATCAAAAAAAAGTGATGAATAAACAATG (double strand) [PlrhA203]”, the binding entry is recorded as “no binding”.

As for “TAATTCTTCCTCCAAGAGCAAAATACGATAACAAACTCCGCTATTCCATGACTTTACGTTCTTTTACATGCTCTGACGCTAGTTTGCAGCCGCAGGGTTATAGTTATCCACACTGAATCGAATAGAGCTATTCGAGAAAGCGGAGAAATTTAATGC (double strand) [PcpxR156]”, the binding result is “no binding”.

With “CCGGCCTTTGGTAATAAATCAGGATAATTGAGTGATGTAAACGGGAAAACAAGGGGAAAAAACCAAAGCATAAGCAATGATTGCCAATACGGTTAATGGCCTTAAAATACATGTGGTTAGTTTCTATTGAATATGGGGTTTCGGTAAAAGTCATGGATATTGCGGGCATGGAGCATCTTGGGAGCTGAAAC (double strand) [PompR191]”, the binding result was “no binding”.
